Ends that are not written are not given here. * marks the point of attachment. Biotin = O=C1N[C@H]2[C@H](CS[C@H]2CCCCC(=O)*)N1
T1: GST-MPP1 PDZ domain fusion protein (Homo sapiens (Human), UniProt Q00013 67-152)
T1 construct: also called 55 Kd erythrocyte membrane protein; not shown: glutathione S-transferase (GST) encoded by pGEX-3X
T1 sequence: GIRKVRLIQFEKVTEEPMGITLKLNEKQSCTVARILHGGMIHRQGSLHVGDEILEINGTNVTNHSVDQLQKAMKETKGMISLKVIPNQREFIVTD

T2: GST-RGS12 PDZ domain fusion protein (human, UniProt O14924 17-85)
T2 construct: also called human regulator of G-protein signalling 12; not shown: glutathione S-transferase (GST) encoded by pGEX-3X
T2 sequence: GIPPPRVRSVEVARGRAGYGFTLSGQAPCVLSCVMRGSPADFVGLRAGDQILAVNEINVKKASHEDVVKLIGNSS

T3: GST-TAX33 PDZ domain fusion protein (Homo sapiens (Human), UniProt O14910 103-194)
T3 construct: not shown: glutathione S-transferase (GST) encoded by pGEX-3X
T3 sequence: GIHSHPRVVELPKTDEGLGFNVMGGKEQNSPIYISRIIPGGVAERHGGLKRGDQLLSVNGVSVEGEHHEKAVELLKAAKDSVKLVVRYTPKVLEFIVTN

T4: GST-KIAA0559 PDZ domain fusion protein (Homo sapiens (Human), UniProt Q9Y6V0 4489-4594)
T4 construct: also called K559; not shown: glutathione S-transferase (GST) encoded by pGEX-3X
T4 sequence: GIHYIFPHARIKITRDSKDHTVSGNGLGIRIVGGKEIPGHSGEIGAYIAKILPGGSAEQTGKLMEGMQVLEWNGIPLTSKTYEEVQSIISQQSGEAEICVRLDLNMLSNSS

T5: GST-TAX40 PDZ domain fusion protein (human, UniProt Q6B4M5 150-251 (rat entry))
T5 construct: not shown: glutathione S-transferase (GST) encoded by pGEX-3X
T5 sequence: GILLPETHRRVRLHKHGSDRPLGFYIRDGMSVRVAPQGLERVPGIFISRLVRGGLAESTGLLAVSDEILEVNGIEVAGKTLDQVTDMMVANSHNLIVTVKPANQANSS

T6: GST-AF6 PDZ domain fusion protein (Homo sapiens (Human), UniProt P55196 1001-1093)
T6 construct: also called af-6 protein; not shown: glutathione S-transferase (GST) encoded by pGEX-3X
T6 sequence: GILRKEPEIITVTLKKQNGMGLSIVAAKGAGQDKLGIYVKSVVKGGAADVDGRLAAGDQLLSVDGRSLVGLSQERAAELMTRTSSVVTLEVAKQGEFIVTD

T7: GST-PTN-4 PDZ domain fusion protein (Homo sapiens (Human), UniProt P29074 517-605)
T7 construct: also called protein-tyrosine phosphatase meg1; not shown: glutathione S-transferase (GST) encoded by pGEX-3X
T7 sequence: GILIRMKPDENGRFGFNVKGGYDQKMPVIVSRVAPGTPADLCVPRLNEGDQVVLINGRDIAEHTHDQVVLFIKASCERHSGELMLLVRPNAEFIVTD

T8: GST-LIMK2 PDZ domain fusion protein (human, UniProt P53671 147-237)
T8 construct: also called human LIM domain kinase 2; not shown: glutathione S-transferase (GST) encoded by pGEX-3X
T8 sequence: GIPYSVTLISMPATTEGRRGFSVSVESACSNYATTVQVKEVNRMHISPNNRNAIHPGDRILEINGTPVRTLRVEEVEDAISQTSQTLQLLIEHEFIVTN

T9: GST-MPP2 PDZ domain fusion protein
T9 construct: also called maguk p55 subfamily member 2 (DLG2); MMP2; not shown: glutathione S-transferase (GST) encoded by pGEX-3X
T9 chain: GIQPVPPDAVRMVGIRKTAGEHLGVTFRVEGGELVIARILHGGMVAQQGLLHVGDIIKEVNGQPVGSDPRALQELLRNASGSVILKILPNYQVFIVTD

T10: GST-DVL1 PDZ domain fusion protein (human)
T10 construct: also called human dishevelled segment polarity protein homolog; not shown: glutathione S-transferase (GST) encoded by pGEX-3X
T10 chain: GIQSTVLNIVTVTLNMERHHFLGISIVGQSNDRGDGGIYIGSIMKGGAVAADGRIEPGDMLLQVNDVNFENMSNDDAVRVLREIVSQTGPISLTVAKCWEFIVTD

T11: GST-prIL16 PDZ domains 1-2 fusion protein (Homo sapiens (Human), UniProt Q14005 1110-1325)
T11 construct: also called putative interleukin 16 precursor; not shown: glutathione S-transferase (GST) encoded by pGEX-3X
T11 sequence: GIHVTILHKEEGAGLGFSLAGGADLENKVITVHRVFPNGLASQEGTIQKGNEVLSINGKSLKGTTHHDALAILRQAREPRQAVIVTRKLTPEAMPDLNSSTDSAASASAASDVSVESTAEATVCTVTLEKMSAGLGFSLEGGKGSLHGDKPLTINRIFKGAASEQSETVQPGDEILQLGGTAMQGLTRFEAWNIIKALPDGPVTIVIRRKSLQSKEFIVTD

T12: GST-LIM (Human LIM protein) PDZ domain fusion protein (human, UniProt Q96HC4 2-85)
T12 construct: not shown: glutathione S-transferase (GST) encoded by pGEX-3X
T12 sequence: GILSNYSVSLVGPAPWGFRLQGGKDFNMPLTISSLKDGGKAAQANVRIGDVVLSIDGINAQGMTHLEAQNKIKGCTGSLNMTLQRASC

T13: GST-TAX2 PDZ domain fusion protein (human, UniProt O14908 129-216)
T13 construct: not shown: glutathione S-transferase (GST) encoded by pGEX-3X
T13 chain: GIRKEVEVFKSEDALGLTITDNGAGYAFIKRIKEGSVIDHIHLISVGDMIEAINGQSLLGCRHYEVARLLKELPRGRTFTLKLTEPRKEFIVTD

T14: GST-KIAA0303 PDZ domain fusion protein (Homo sapiens (Human), UniProt O15021 1138-1229)
T14 construct: also called K303; not shown: glutathione S-transferase (GST) encoded by pGEX-3X
T14 sequence: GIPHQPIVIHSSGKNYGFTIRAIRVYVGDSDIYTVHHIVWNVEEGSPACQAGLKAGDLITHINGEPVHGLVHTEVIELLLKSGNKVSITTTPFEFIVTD


Columns and labels:
Experiment in all cases: A/G assays
[1] = target: T1, GST-MPP1 PDZ domain fusion protein
[2] = target: T2, GST-RGS12 PDZ domain fusion protein
[3] = target: T3, GST-TAX33 PDZ domain fusion protein
[4] = target: T4, GST-KIAA0559 PDZ domain fusion protein
[5] = target: T5, GST-TAX40 PDZ domain fusion protein
[6] = target: T6, GST-AF6 PDZ domain fusion protein
[7] = target: T7, GST-PTN-4 PDZ domain fusion protein
[8] = target: T8, GST-LIMK2 PDZ domain fusion protein
[9] = target: T9, GST-MPP2 PDZ domain fusion protein
[10] = target: T15, GST-KIAA0316 PDZ domain fusion protein (Homo sapiens (Human), UniProt Q14CM0 72-159)
T15 construct: also called K316; not shown: glutathione S-transferase (GST) encoded by pGEX-3X
T15 sequence (Q14CM0 other isoform, or with tags, fused parts or gaps): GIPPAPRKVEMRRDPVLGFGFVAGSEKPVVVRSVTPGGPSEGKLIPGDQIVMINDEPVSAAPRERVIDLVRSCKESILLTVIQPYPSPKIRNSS

[11] = target: T10, GST-DVL1 PDZ domain fusion protein
[12] = target: T11, GST-prIL16 PDZ domains 1-2 fusion …
[13] = target: T12, GST-LIM (Human LIM protein) PDZ domain …
[14] = target: T13, GST-TAX2 PDZ domain fusion protein
[15] = target: T14, GST-KIAA0303 PDZ domain fusion protein

Row | binding result [1] | binding result [2] | binding result [3] | binding result [4] | binding result [5] | binding result [6] | binding result [7] | binding result [8] | binding result [9] | binding result [10] | binding result [11] | binding result [12] | binding result [13] | binding result [14] | binding result [15] | Binder
1 | no binding | no binding | no binding | no binding | no binding | no binding | no binding | no binding | no binding | no binding | no binding | no binding | no binding | no binding | no binding | Biotin-TIYENLAPVTTFGKTIA [CD148 peptide AA55L (ending KTIA)]
2 | no binding | no binding | no binding | no binding | no binding | no binding | no binding | no binding | no binding | no binding | no binding | no binding | no binding | no binding | no binding | Biotin-QATSRNGHSARQHVVADTEL [CD34 C-terminal peptide AA7L]
